Experimental findings from US6942852 are described below.

This assay deals with CCR5 chemokine receptor (human) (UniProt P51681). Briefly: cell-based or functional assay.
Chain of UniProt P51681 (P51681 whole entry): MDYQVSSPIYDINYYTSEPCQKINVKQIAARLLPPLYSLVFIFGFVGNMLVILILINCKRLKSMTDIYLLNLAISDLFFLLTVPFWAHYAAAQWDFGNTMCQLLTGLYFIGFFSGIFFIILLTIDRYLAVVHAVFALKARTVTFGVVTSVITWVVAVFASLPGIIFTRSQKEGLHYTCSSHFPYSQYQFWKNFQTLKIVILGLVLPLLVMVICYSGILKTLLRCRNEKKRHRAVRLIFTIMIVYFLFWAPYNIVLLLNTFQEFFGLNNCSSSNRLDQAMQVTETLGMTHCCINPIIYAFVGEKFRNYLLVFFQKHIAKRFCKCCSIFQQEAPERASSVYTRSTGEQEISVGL

Consider “aminooxypentane-RANTES (2-68) (from UniProt P13501 25-91) (ligand)”, for which the inhibition of replication of dual-tropic HIV-1 89.6 in vitro (p24 ELISA) amounted to 50% and the inhibition of replication of primary dual-tropic HIV-1 isolates from patients in vitro (p24 ELISA) was 80 to 90%. “n-nonanoyl-RANTES (2-68) (from UniProt P13501 25-91) (ligand)” gave a potency at preventing infection of PBMC with R5 HIV-1 SF162, relative to AOP-RANTES of 3 fold.
